Numbering of substitutions follows the chain as printed.
T1: Recombinant mouse CXCL16 antigen (mouse, UniProt Q8BSU2 27-114, limits assumed)
T1 construct: Bought recombinant protein (503-CX, R&D systems); also called 503-CX (R&D systems)
T1 sequence: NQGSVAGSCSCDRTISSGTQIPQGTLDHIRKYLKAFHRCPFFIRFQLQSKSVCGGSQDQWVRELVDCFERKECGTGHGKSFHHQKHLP

T2: Recombinant human CXCL16 (rhCXCL16) protein (human, UniProt Q9H2A7 30-118, limits assumed)
T2 construct: Bought recombinant protein (976-CX, R&D systems); also called CXCL16 antigen; 976-CX (R&D systems)
T2 sequence: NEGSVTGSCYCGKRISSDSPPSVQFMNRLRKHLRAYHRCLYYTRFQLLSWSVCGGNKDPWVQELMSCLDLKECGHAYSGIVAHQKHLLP

B1: Chimeric antibody HC0LC0 (antibody, V domains shown)
VH: AVQLVESGGGLVQPKESLKISCAASGFTFSNAVMNWVRQAPGKGLEWVARIRTKPNNYATFYADSVKGRFTFSRDDSKSMVYLQMDNLKTEDTAMYYCTAWTTEGIYWGQGTLVTVSS
VL: DIVMTQSPSSLAVSAGETVTINCKSSQSLLYSGNQKNYLAWYQQKPGQSPKLLIYWASTRQSGVPDRFIGSGSGTDFTLTISSVQAEDLAIYYCQQYYDTPWTFGGGTKLELKR
notes: also called CLS-A1HC0LC0; variant antibody
B2: HC5LC3 (antibody, human IgG1, kappa, V domains shown)
VH: B1 VH with A1E, K15G, E16G, I20L, P41S, S79N, M80T, V81A, D86N, N87S
VL: DIQMTQSPSSLSASVGDRVTITCKSSQSLLYSGNQKNYLAWYQQKPGQSPKLLIYWASTRQSGVPDRFSGSGSGTDFTLTISSLQAEDFATYYCQQYYDTPWTFGGGTKVEIKR
notes: Humanized; human IgG1 / kappa constant domains; also called HCSLC3; humanized CXCL16 antibody HC5LC3
B3: HC5LC1 (antibody, human IgG1, kappa, V domains shown)
VH: B1 VH with A1E, K15G, E16G, I20L, P41S, S79N, M80T, V81A, D86N, N87S
VL: B1 VL with S9D, I69S, L89V, I91V, L110V, L112I
notes: Humanized; human IgG1 / kappa constant domains; also called HCSLC1; humanized CXCL16 antibody HC5LC1
B4: HC4LC1 (antibody, human IgG1, kappa, V domains shown)
VH: EVQLVESGGGLVKPGGSLRLSCAASGFTFSNAVMNWVRQAPGKGLEWVARIRTKPNNYATFYADSVKGRFTFSRDDSKNTLYLQMNSLKTEDTAVYYCTAWTTEGIYWGQGTTVTVSS
VL: B1 VL with S9D, I69S, L89V, I91V, L110V, L112I
notes: Humanized; human IgG1 / kappa constant domains; also called humanized CXCL16 antibody HC4LC1
B5: HC1LC5 (antibody, human IgG1, kappa, V domains shown)
VH: B4 VH with E1Q, L11V, K13Q, D76N, N79T, T80M, K89R, T90A, T113L
VL: B1 VL with T18R, V19A, V84L, L89V
notes: Humanized variant; human IgG1 / kappa constant domains
B6: HC2LC1 (antibody, human IgG1, kappa, V domains shown)
VH: B1 VH with K15G, E16G, P41S, A49G, F72I, S79N, M80T, V81A, D86N, N87S
VL: B1 VL with S9D, I69S, L89V, I91V, L110V, L112I
notes: as for B5
B7: HC2LC5 (antibody, human IgG1, kappa, V domains shown)
VH: B1 VH with K15G, E16G, P41S, A49G, F72I, S79N, M80T, V81A, D86N, N87S
VL: B1 VL with T18R, V19A, V84L, L89V
notes: as for B5
B8: HC3LC1 (antibody, human IgG1, kappa, V domains shown)
VH: B4 VH with K13Q, R19K, A49G, L81A, S87I, V95M
VL: B1 VL with S9D, I69S, L89V, I91V, L110V, L112I
notes: as for B5
B9: HC3LC5 (antibody, human IgG1, kappa, V domains shown)
VH: B4 VH with K13Q, R19K, A49G, L81A, S87I, V95M
VL: B1 VL with T18R, V19A, V84L, L89V
notes: as for B5
B10: HC4LC5 (antibody, human IgG1, kappa, V domains shown)
VH: B4 VH
VL: B1 VL with T18R, V19A, V84L, L89V
notes: as for B5
B11: HC5LC4 (antibody, human IgG1, kappa, V domains shown)
VH: B4 VH with K13Q, R19K, P41S, L81A, V95M, T113L
VL: B2 VL with D66S, A86P, F89L, T91I, V110L, I112L
notes: as for B5
B12: HC1LC1 (antibody, human IgG1, kappa, V domains shown)
VH: B4 VH with E1Q, L11V, K13Q, D76N, N79T, T80M, K89R, T90A, T113L
VL: B1 VL with S9D, I69S, L89V, I91V, L110V, L112I
notes: as for B5
B13: HC3LC2 (antibody, human IgG1, kappa, V domains shown)
VH: B4 VH with K13Q, R19K, A49G, L81A, S87I, V95M
VL: B1 VL with A15L, V19A, S49P, I69T, S73A, L110V, L112I
notes: as for B5
B14: HC3LC3 (antibody, human IgG1, kappa, V domains shown)
VH: B4 VH with K13Q, R19K, A49G, L81A, S87I, V95M
VL: B2 VL
notes: as for B5
B15: HC3LC4 (antibody, human IgG1, kappa, V domains shown)
VH: B4 VH with K13Q, R19K, A49G, L81A, S87I, V95M
VL: B2 VL with D66S, A86P, F89L, T91I, V110L, I112L
notes: as for B5
B16: HC4LC2 (antibody, human IgG1, kappa, V domains shown)
VH: B4 VH
VL: B1 VL with A15L, V19A, S49P, I69T, S73A, L110V, L112I
notes: as for B5
B17: HC4LC3 (antibody, human IgG1, kappa, V domains shown)
VH: B4 VH
VL: B2 VL
notes: as for B5
B18: HC4LC4 (antibody, human IgG1, kappa, V domains shown)
VH: B4 VH
VL: B2 VL with D66S, A86P, F89L, T91I, V110L, I112L
notes: as for B5
B19: HC1LC2 (antibody, human IgG1, kappa, V domains shown)
VH: B4 VH with E1Q, L11V, K13Q, D76N, N79T, T80M, K89R, T90A, T113L
VL: B1 VL with A15L, V19A, S49P, I69T, S73A, L110V, L112I
notes: as for B5
B20: HC1LC3 (antibody, human IgG1, kappa, V domains shown)
VH: B4 VH with E1Q, L11V, K13Q, D76N, N79T, T80M, K89R, T90A, T113L
VL: B2 VL
notes: as for B5
B21: HC1LC4 (antibody, human IgG1, kappa, V domains shown)
VH: B4 VH with E1Q, L11V, K13Q, D76N, N79T, T80M, K89R, T90A, T113L
VL: B2 VL with D66S, A86P, F89L, T91I, V110L, I112L
notes: as for B5
B22: HC2LC2 (antibody, human IgG1, kappa, V domains shown)
VH: B1 VH with K15G, E16G, P41S, A49G, F72I, S79N, M80T, V81A, D86N, N87S
VL: B1 VL with A15L, V19A, S49P, I69T, S73A, L110V, L112I
notes: as for B5
B23: HC2LC3 (antibody, human IgG1, kappa, V domains shown)
VH: B1 VH with K15G, E16G, P41S, A49G, F72I, S79N, M80T, V81A, D86N, N87S
VL: B2 VL
notes: as for B5
B24: HC2LC4 (antibody, human IgG1, kappa, V domains shown)
VH: B1 VH with K15G, E16G, P41S, A49G, F72I, S79N, M80T, V81A, D86N, N87S
VL: B2 VL with D66S, A86P, F89L, T91I, V110L, I112L
notes: as for B5

What follows are binders tested against T1, Recombinant mouse CXCL16 antigen (assay: ELISA, recombinant mouse CXCL16 immobilized on the plate, HRP-labeled anti-human IgG detection, OD 450 nm).
Procedure: To evaluate the cross-reactivity with mouse CXCL16 antigen, the same ELISA experiment was performed with recombinant mouse CXCL16 antigen (503-CX, R&D systems). The mouse CXCL16 antigen was immobilized onto 96-well plates by incubation for 2 hours at room temperature. Non-specific binding sites were blocked by incubating with 1% BSA in PBS overnight at 4° C. After coating, the plates were washed with PBS. Humanized CXCL16 antibodies at various concentration (0.00 1˜10 nM) were incubated with the immobilized antigen for 2 hours at room temperature. After binding, the plates were washed, incubated with HRP-labeled anti-human IgG antibody (W4031, Promega, USA) for 0.5 hours, and developed using the substrate solution (DY008B, R&D systems). The binding affinity of humanized antibodies was similar to that of IgG antibody.
B1: no binding (tested: 1500 ng/mL).

What follows are binders tested against T2, Recombinant human CXCL16 (rhCXCL16) … (assay: BLI (ForteBio), antibody captured on biosensor, rhCXCL16 in solution, 25 C).
Procedure: (§1) The binding characteristics of 25 CXCL16 antibodies were analyzed using the bio-light interferometry (ForteBio). All antibodies were diluted in freshly prepared running buffer. Antibodies were immobilized onto the surface of a series of biosensors using the capture methods at 0.3 μg/mL. Recombinant human CXCL16 (rhCXCL16) protein (100 nM) was passed over the surface to generate a binding response for 10 minutes. Binding data for the antibody and antigen interactions were collected at 25° C. on the biosensors. Then, the running buffer was passed for 10 minutes to dissociate them. The association constant (kₐ) and the dissociation constant (kₐ) were observed, and the equilibrium binding constant (KD) was calculated. […] R2: The value indicating how well the fit and experimental data correlate; X²: The measure of error between the experimental data and fitted line.
For B1, the Kd was < 0.001 nM and the koff was < 1e-07 s⁻¹. B2 gave a Kd of 1.44 nM and a koff of 0.000635 s⁻¹. B3 showed a Kd of 3.26 nM, a koff of 5.97e-05 s⁻¹ and a kon of 18300 M⁻¹ s⁻¹. B4 was tested, and the Kd was 1.09 nM, the koff was 1.9e-05 s⁻¹ and the kon was 17400 M⁻¹ s⁻¹.

The binders below were run against T2, Recombinant human CXCL16 (rhCXCL16) … (assay: BLI (ForteBio), antibody captured on biosensor, rhCXCL16 in solution).
Procedure: as §1
B5: no binding (tested: 100 nM rhCXCL16). B6: no binding (tested: 100 nM rhCXCL16). B7: no binding (tested: 100 nM rhCXCL16). B8: no binding (tested: 100 nM rhCXCL16). B9: no binding (tested: 100 nM rhCXCL16). B10: no binding (tested: 100 nM rhCXCL16). B11: no binding (tested: 100 nM rhCXCL16). B12: no binding (tested: 100 nM rhCXCL16). B13: no binding (tested: 100 nM rhCXCL16). B14: no binding (tested: 100 nM rhCXCL16). B15: no binding (tested: 100 nM rhCXCL16). B16: no binding (tested: 100 nM rhCXCL16). B17: no binding (tested: 100 nM rhCXCL16). B18: no binding (tested: 100 nM rhCXCL16). B19: no binding (tested: 100 nM rhCXCL16). B20: no binding (tested: 100 nM rhCXCL16). B21: no binding (tested: 100 nM rhCXCL16). B22: no binding (tested: 100 nM rhCXCL16). B23: no binding (tested: 100 nM rhCXCL16). B24: no binding (tested: 100 nM rhCXCL16).

Biological target: T2, Recombinant human CXCL16 (rhCXCL16) …
Test: BLI (ForteBio), antibody captured on biosensor, rhCXCL16 in solution, 25 C
Remark: another data set of the same source
B1 was tested, and the “Res@3.7 nM” value was 0.13. With B2 the “Res@3.7 nM” value was 0.078. B3 was tested, and the “Res@3.7 nM” value was 0.08. With B4 the “Res@3.7 nM” value was 0.113.
